Assay results from paper PMC7222171 (Cellular and Molecular Immunology, 2020).

Molecular target: Con1 E2 soluble fragment, amino acids 384–661 (wild type) (Hepatitis C virus genotype 1b, Con1, UniProt Q9WMX2)
Test: ELISA

Con1 E2 soluble fragment, amino acids 384–661 (wild type), sequence (Q9WMX2 384-661): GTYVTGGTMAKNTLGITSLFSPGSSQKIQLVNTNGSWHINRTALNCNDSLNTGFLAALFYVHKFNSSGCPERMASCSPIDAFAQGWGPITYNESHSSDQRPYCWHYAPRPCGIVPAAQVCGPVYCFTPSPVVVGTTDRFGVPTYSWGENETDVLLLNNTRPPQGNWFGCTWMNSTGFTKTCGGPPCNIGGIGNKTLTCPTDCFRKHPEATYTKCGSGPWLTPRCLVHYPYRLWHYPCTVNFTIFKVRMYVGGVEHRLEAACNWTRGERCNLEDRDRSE

B1: 8D6 double Cys to Ala mutant (C104A, C109A) (antibody, V domains shown)
VH: QVQLVQSGSELKKPGASLKLSCKASGYTYITPAMNWVRQAPGHGLEWMGGINTNTGNPTYAQGFAGRFVFSWDTSVSTAYLHISSLKTEDTAVYYCADTRIFSARRGTAYGGFDVWGQGTMVTVSS
VL: DIQMTQSPSSLSASVGDRITITCRASQSISNFLNWFQHRPGKAPKLLIYGATILQSGVPSRFSGSGSGTDFTLTISSLQPEDFATYYCQQSDSSTYIFGQGTKVEIK
  binding result: binds

B2: AR3C double Cys mutant (double amino-acid substitution in the CX4C motif) (antibody, V domains shown)
VH: VQLLEQSGAEVKKPGSSVKVSCETSGGTFDNYALNWVRQAPGQGLEWIGGVVPLFGTTRNAQKFQGRVTISDDKSTGTGHMELRSLRSEDTAVYYCVRSVTPRYAGGGFAYGEFDYWGQGTLVTVSS
VL: EIELTQSPATLSVSPGERATLSCRASQSVSSNLAWYQQKPGQAPRLLIYGASTRATGIPARFSGSGSGTEFTLTVSRLEPEDSAVYFCQQYYRSPLTFGGGTKVEIK
  binding result: binds
